Data taken from the DeepSol protein solubility set.

Test: soluble on expression in E. coli; label from the status in PepcDB or PDB records

Soluble on expression in E. coli, soluble:
SSEASRDDYKIQSFDAQTQQLLKTALKDPGAVDLERVANVIVDHSLQDCVFSKEAGRMCYAIIQAESKQAGQSVFRRGLLNRLQKEYDAREQLRACSLQGWVCYVTFICNIFDYLRVNNMPMMALVNPVYDCLFQLAQPESLSREEEVDCLVLQLHRVGEQLEKMNGQRMDELFILIRDGFLLPTDLSSLARLLLLEMIEFRAAGWKTTPAAHKYYYSEVSD
TLTIDDGNIEIVGTGVKGKLPTVWLQYGQVNLKASGGNGKYTWRSANPAIASVDASSGQVTLKEKGTTTISVISSDNQTATYTIATPNSLIVPNMSKRVTYNDAVNTCKNFGGKLPSSQNELENVFKAWGAANKYEYYKSSQTIISWVQQTAQDAKSGVASTYDLVKQNPLNNIKASESNAYATCVK
MSVGQTLAEKILSHKVGRPVRAGELVVVEVDQVMVVDSIAGSFFKRLEYLEATPRYPERVSIVIDHVAPAANLEVAKAQKEIREWGKRHGIRVFDVGRGVCHQVLIEEGLAQPGWVVVGSDSHSTTYGAVGAFGTGMGATDIALAAASGRTWLRVPESVKVVFRGRLPKGVTAKDAALEMVRLLTAEGATYMAVEIHLLDGAEALTRGERMTLANLTVEAGAKAGLVVPSGEILEMYRVPDWLYPDPDARYAKEVEIDLSALTPRVSVPFYVDNVHEVAQVKGKRVDQVFIGTCTNGRIEDLRAAAEVLKGRKVAPWVRLLVVPASSQVLEEAARDGTLLTLLEAGATIGTPGCGPCMGRHMGVLAPGEVCVSTSNRNFRGRMGAPDAEIYLASPRVAAASAVAGYLTTPEELEEEEVHA
SESLRIIFAGTPDFAARHLDALLSSGHNVVGVFTQPDRPAGRGKKLMPSPVKVLAEEKGLPVFQPVSLRPQENQQLVAELQADVMVVVAYGLILPKAVLEMPRLGCINVHGSLLPRWRGAAPIQRSLWAGDAETGVTIMQMDVGLDTGDMLYKLSCPITAEDTSGTLYDKLAELGPQGLITTLKQLADGTAKPEVQDETLVTYAEKLSKEEARIDWSLSAAQLERCIRAFNPWPMSWLEIEGQPVKVWKASVIDTATNAAPGTILEANKQGIQVATGDGILNLLSLQPAGKKAMSAQDLLNSRREWFVPGNRLV
MAHHHHHHMEDGEALDLQDALKPEVKERPVRLIKIERHDGTKAFLNSVIEMAQVVLDNMPPDACYKDIAIKLKTKLDEVEKGTWHVIVGSHFGANVTNDSETLVNFKIDEMHILLFRSGPPERPMSLNDEGS
MSLRTVDEKKEQVEKLIQSLDEGVKNFTYNPGRFKALLEMQALMPKYTFRNIMLARIQLPEAQFIASFNRWKELGRNVKKGERSLRILAPRFKKVKDEITGEEETKLIGFLGVPVFDVSQTEGDPLPADRIKLTLDGESQEAVDIFEWVKELAKEDDCPVTIKHADGANGYYSITNHAIVVDSKLSINHRAKTGVHELVHSRVHRNINGTTATERECVAEGVAFIVCSYFGLDTSDYSFEYVNGWSKDGGESLMKYGDIMQKTANLLIEDFERVAEKSQAQAAGEGEKNDSPISAEGHHHHHH
MSLKTGRFDQAQADAFAERLLSVLNDAALTLMISIGHRTGLFDVMDKLDFASSEVIAEAAGCNERYVREWLNALVVGGIVDYDAHTKAYQLPAEHASFLTRKSSPQNMAVVAQFIPVLAYVENGIVDAFKHGGGVPYEAYHRFHEVMAEESGQTILSSLTDKILPMVHGLVDKLNQGIQVLDIGCGYGRALILMAKTYPQSQFTGYDLCDETIAHAVHSAKKNKIQNIHFEKMDLSVWDEQEKYDLITSFDVIHDQAKPAQVLSNVFKALKPHGIFLMQDIKTSSDVAGNVHHPLGALIYTISCMHCMTVSLSQNGLGLGAAWGEELAEKMLVEAGFGKIEKHYLEHDIMNTYYVMRKEGHHHHHH
AHHHHHHGSAKRVHLFDWHKEHAKKIEEFAGWEMPIWYSSIKEEHLAVRNAVGVFDVSHMGEILFKGKDALKFLQYTTTNDISKPPAISGTYTLVLNERGAIKDETLVFNMGNNEYLMICDADAFEKLYAWFTYLKKTIEQFTKLDLEIELKTYDIAMFAVQGPKARDLAMDLFGIDINEMWWFQGRWVELDGIKMLLSRSGYTGENGFEVYIEDLNPYHPDEEKRGKPEKALHVWERILEEGQKYGIKPAGLGARDTLRLEAGYTLYGNDTKELQLLSTDIDEVTPLQANLEFAIYWDKDFIGKDALLKQKEKGLGRKLVHFKMLEKSVPREGYKVYANGELIGEVTSGTLSPLLNIGIGIAFVKEEYAKPGVEIEIDIRGTRKKAITVTPPFYDPKKYGLFREE
APPGPPASGPCADLQSAINAVTGGPIAFGNDGASLIPADYEILNRVADKLKACPDARVTINGYTDNTGSEGINIPLSAQRAKIVADYLVARGVAGDHIATVGLGSVNPIASNATPEGRAKNRRVEIVVN
SNAMNVWQVVGYKHSGKTTLMEKWVAAAVREGWRVGTVKHHGHGGEPARPEGVDSVRHERAGAVATAVEGDGLLQLHLRRPLWRLDDVLALYAPLRLDLVLVEGYKQERHPKVVLVRSEEDWASLQHLANIRAVIAWEPLEGPLAHPVFSLADDDEYIPWLMNEVRTRT

Soluble on expression in E. coli, not soluble:
MGSDKIHHHHHHCQTQVETAPTSDVIKLQQTALASQLGYDIVESLTVEVGPRLAGSPKDIIAVNWAINKLTSLGFDRVYKEPVQVPIWERGEAKAKITFPVEQPLVITALGGSIATPAGGIQAKIARFDSLEALQQAKPEDVQGKIAFIDQKTERHITGEGYGKSVGGRSKGAVVAAQKGAVAIVIRSIGTDHDRMAHTGVMRYQDDVPKIPAAAMSNPDADLVDALLKRNPDALLELQMSPKNAGFNTSYNVIAEVTGSSKPNEIVLIGAHLDSWDEGTGAIDDGAGVAIVTAAAKHIQDLLVKPARTVRVVLYAAEEIGLVGGKAYAETHKAELPLHYIAAESDFGAGRIYQIDTKVNESAFAEVQHALSPMSFNGVALGNNQASGGPDVSMLPALGVPVASLRQDGHDYFDYHHTPNDTLDKIDPAALAQNVAAYAQFAYIMANSTPTLTPLVIQSEK
MAQTEKLTDYVNPFVGTDGYGNVYPGAQIPFGGIQISPDTDSRFYDAASGYKYNHLTLMGFSLTHLSGTGIPDLGDFLFIPGTGEMKLEPGTHEDPDQGYRSRYSHDKEWASPNYYAVELADYGVKAEMTSGVRSGMFRFTYPESDNAFIMIDMNHTLWQSCEWSNLRMINDSTITGYKLVKGWGPERHVYFTATFSKKLEHHHHHH
MGHHHHHHSHMEEVLEAAEKIRSMEVRGAARIARFAAETLMKFAEKASDEKFDEEMRFAAETLLNTRPTAVSLYNAINYVMRYSGESVEEKRQSVIRRAREFINWVETAQRKIGEIGEKRIKDGYTVMTHCNSSAALSVIKKAHENGKRVEVIATESRPRWQGHLTVKQLREAGIEVTLIVDSAVRYFINEVDCVVVGADTITANGALINKIGTSQIALAAKEARVPFMVAAETYKFSPKTLFGELVVIEERDAREVAPEEILKLGVKVRNPAFDVTPRDYIDVIITEIGAIPPEMAYIVITERLGYAGIEEEEITLNSRHFD
MEFRKEVEVAKILVGGKVEENVVEIRYDPLTLQTSRILKKTIPMQSGDFQEEIDSTRSWCPFCPERIEQMVSRDPEIMEGELWKRGEAVLFSNLTPYSKYSLVLRLTEEHYVPVSEFKSQHFFDAFKLIQEYVKKVPEGKYYVTIGMNYLKPSGSSIMHPHIQVMISEVSTDYFARLDWSALEFKESNGVDYWKKLAEVEKGGERYIGSTDKTEWVAAFAPKGFFHFTGIPEEREFMQMSDEQLKGIAEGIAKILRYYGRKNLNAFNFSMFCADRIGDHFRTNINIVARTPFAKYYWCDVFYPKMFHDESVVFFVPEEYAKEIREIWSEL
MTKNTSYHYSIIIPHKNTPRLLERCLCSIPTWDEIQIIIIDDNSNSESVDFSHFPGNGRKNTEVLFTKEGKGAGYARNIGLSHARGKWIIFADADDFFTADCFTILNEYMDSPHEVIYFNVRFVMSDNPSQESRRGTYYTNFFNDVNPENKLRYQSQVPWGKMIRRSFLSTFHIQFDETRIANDVYFSCLVGIYAPKATTDRRIIYYCTESGQSLAMSKQDRESLIIRFNASMKCNRLLRQEKIHYYLSPLPWCIPSAKTKEWLPAKYFFEYLFFFRLQAFKELYYAFSAILSHMNEPATKETDNQCNKKTTNLRE
MQFIKNLQLNKKKDSDSSEQVLTNKKNKMKYEDFNFIRTLGTGSFGRVILATYKNGNYPPVAIKRFEKCKIIRQKQVDHVFSERKILNYINHPFCVNLHGSFKDDSYLYLVLEFVIGGEFFTFLRRNKRFPNDVGCFYAAQIVLIFEYLQSLNIVYRDLKPENLLLDKDGFIKMTDFGFAKIVETRTYTLCGTPEYIAPEILLNVGHGKAADWWTLGIFIYEILVGCPPFYANEPLLIYQKILEGIIYFPKFLDNNCKHLMKKLLSHDLTKRYGNLKKGAQNVKEHPWFSNIDWVNLLNKNVEVPYKPKYKNIFDSSNFERVQEDLTIADKITNENDPFYDW
MAHHHHHHMRRTVVQRVAPWVPPPRHDIKVTMPPPPGGEVGGRFGVSQGYSDRLARTPYWKRMALSTYKLRMMENATRYPMSEHRPGEYDIRYLPTPYPCTIRNRPLLEVGEPRQIPSIRIPVIFLVNLFDEAKGCWFGRRYETVYVERQFMREELMPQRYAIYATPEAYKLLGLPVVNHHTHEEIPKTPREYEKLLERQRYDEERWKYTIEYLFRKYEDGPPELLDRPEDGWDGSEEIALSSVAGAGRDGVVSQRKGPVKQRKARKIKLF
MLTRDFLQKADCRTSFGCIEETLLLTPQQRADSLDRMLALRPNSCPVWVFGYGSLMWNPVFDAEETCLATLTGWQRAFCLRLTIGRGTVTQPGRMLALQPGGQTTGLAFRLPKTSLREDLELLWKREMLTGCYRPLWCELHRKNGAPLTALVFVSEPEHPLNENDTCIQSVAPLIARASGPLGTNAQYLFALEQELKNHGTEDESVSELAQRVRTLQQSCPAPAGGGQLEHHHHHH
MIGYEFFVSEKLENCKYKYIKAINDYIKQEKSHIIGIDLGKYHYLTASNIDRSFVFVDKHNTLFHLFRKYERRIANKQYDNSEAYSKLKTGLKSHINQVVNEMLEQTSNRFQTVFALDDHGSSHLSFPSLVFDLTYFAIKQRKNESDEILIVDESFTSIECPICHDRNQYNRTNKNKFKCTKCGFIHQNNDIVAASNIAKKGQLLNSLEHHHHHH
MAHHHHHHSLIKTEFKGNNIPYEYAAGADVSDSINGNPIKSFPFEVIELPEGTKYLAWSLIDYDAIPVCGFAWIHWSVANVSVSGNSISIKADLSRTKGDYVQGKNSFTSGLLAEDFSEIENHYVGPTPPDQDHQYELTVYALDHSLNLKNGFYLNEFLKEVNQHKIDQTSINLIGRKEG
MGSDKIHHHHHHMVAIEKGGARLVFAPEVGGAVAAFTVDGREVLRPTAPQVDDALLTANFPLVSFCNRIPNGRFEWRGTSVTLPPNLEGHPHPLHGQGWRMPWAVEAIETDRALLVFEHPAGDWPWAYRAEQAFTLSETGFRVTLTVINTGEEDMPAGLGFHPYFPARPGERLAAQNDGVWLIDEDVLPTVRHAGRWGPDWAVGAPVAGHALIDHCYTGWNQRAVLSAPGRPDTVITASPDCAWLHVYAPPGEGYYCVEPCASRPNPFGEGETGMVTLCPGERRSIWMEIATG
MPHILNVTVPIPETHVLITKDEYDELIGYSLDPVWNMSDLKKKLKIASDETIKDRLLFHPRFEKELRAQGIVHYPDENFNRWRFNARKMNKFVDEHFNEIYKERIKLEHHHHHH
